How the values were obtained:
Conditions in all cases: 20 nM; 72 h
MCF10A [1] = experiment: 5+ nucleoli phenotype percent effect (relative to siNT 0% and siKIF11 100%); higher = more cells with five or more nucleoli
Description: (§1)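 After 72 h, cells were fixed and stained with Hoechst and anti-fibrillarin, and nucleoli per nucleus were counted with CellProfiler. Values are plate-adjusted percent effect for the one-nucleolus and 5+ nucleoli phenotypes, normalised to siNT (0%) and to the positive controls siNOL11 or siKIF11 (100%), as the mean of biological triplicates. Percent viability is the nuclei count relative to siNT.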

MCF10A [2] = experiment: percent viability (nuclei count relative to siNT); higher = more viable cells
Description: as §1

MCF10A [3] = experiment: one-nucleolus phenotype percent effect (relative to siNT 0% and siNOL11 100%); higher = more cells with one nucleolus (ribosome biogenesis inhibition)
Description: as §1

Sequence | 5+ nucleoli phenotype percent effect (MCF10A [1]) [%] | percent viability (MCF10A [2]) [%] | one-nucleolus phenotype percent effect (MCF10A [3]) [%]
AUCCAGUUCUCUGAGGGGGCU [hsa-miR-5195-3p] | 2.52 | 46.4 | 13.3
UUAUAAAGCAAUGAGACUGAUU [hsa-miR-340-5p] | -24.6 | 21.9 | 47.7
CGGGAGCUGGGGUCUGCAGGU [hsa-miR-6726-5p] | 58.1 | 73 | -17.2
AGGGAAGGAGGCUUGGUCUUAG [hsa-miR-4747-5p] | 11.6 | 29.6 | -5.76
UAACAGUCUACAGCCAUGGUCG [hsa-miR-132-3p] | -13.6 | 112 | -5.13
GUUCUGUUAACCCAUCCCCUCA [hsa-miR-4652-3p] | -42.7 | 28.2 | 16
GUAGGGGCGUCCCGGGCGCGCGGG [hsa-miR-6789-5p] | 28.1 | 77.1 | -25.6
UUCAUUUGGUAUAAACCGCGAUU [hsa-miR-579] | -37.2 | 29 | 45.1
GGUGGUUGAGGCUGCAGUAAGU [hsa-miR-1273g-5p] | 22.4 | 49.2 | -13.4
CUCUAGAGGGAAGCGCUUUCUG [hsa-miR-519b-5p] | -5.59 | 36.9 | 5.75
UGGCAGUGUAUUGUUAGCUGGU [hsa-miR-449a] | -16.3 | 14 | 36.9
UCAACAAAAUCACUGAUGCUGGA [hsa-miR-3065-5p] | 38.2 | 117 | -30.5
UUCGCGGGCGAAGGCAAAGUC [hsa-miR-3124-5p] | 18.7 | 32.5 | 3.56
UAGUGGAUGAUGCACUCUGUGC [hsa-miR-3681-5p] | -13.2 | 50 | 15.8
UGAGACAGGCUUAUGCUGCUAU [hsa-miR-4524a-3p] | 8.73 | 21.6 | 24.8
UGCCCUUAAAGGUGAACCCAGU [hsa-miR-938] | 6.12 | 57.4 | 6.19
CAAAGCGCUCCCCUUUAGAGGU [hsa-miR-518b] | -39.6 | 27.8 | 61.9
UUGCAUAGUCACAAAAGUGAUC [hsa-miR-153] | 83 | 116 | -31.1
CAGCAGGAGGUGAGGGGAG [hsa-miR-6165] | 36.7 | 101 | -18.4
UAUUCAGGAAGGUGUUACUUAA [hsa-miR-506-5p] | -1.47 | 91 | -9.8
GGGCUAGGGCCUGCUGCCCCC [hsa-miR-6069] | 21.6 | 54.3 | -4.55
UGAGCACCACACAGGCCGGGCGC [hsa-miR-3663-3p] | 12.4 | 58.5 | -6.6
UGGAAUGUAAGGAAGUGUGUGG [hsa-miR-206] | -23.7 | 48.8 | 48.4
CAUUGCACUUGUCUCGGUCUGA [hsa-miR-25-3p] | -21.1 | 96.4 | 3.94
